Results on 6 molecules are retold here after patent US7078382B1, “Modulation of eNOS activity and therapeutic uses thereof” (Genentech, Inc., priority 1999, dated 2006).

For one assay, the system named is eNOS expression. The experiment in a line: eNOS expression by Western blot in ACE cells. It is filed as cell-based, bovine. The method, then: At the end of incubation, total cell lysates were prepared, and eNOS protein levels were determined by Western blot analysis.
Bovine adrenal cortex capillary endothelial cells (ACE) were prepared and maintained as previously described (Ferrara et.al., 1989 Biochem. Biophys. Res. Commun. 161:851–858). Briefly, cells were plated onto 6-well tissue culture plates (Costar) and grown in low glucose Dulbecco's modified Eagle's medium, supplemented with 2 mM […] (Life Technologies), 10% bovine calf serum (HyClone Lab., Inc.) and 100 μg/ml Penicillin/Streptomycin (Life Technologies). ACE cells were used between passages 4 and 8.
Medium was changed every 24 hours.
The methods for cell lysis and Western blot (WB) have been described in Shen et al., 1998 J. Biol. Chem. 273:29979–29985. A monoclonal anti-eNOS antibody was used at 1:2500 to probe eNOS protein. […] The protein bands were scanned by a densitometer and the relative intensities were quantified using IMAGEQUANT® software (Molecular Dynamics).
Confluent ACE cells were incubated with 500 pM rhVEGF. […] Equal amounts of protein were denatured under reducing conditions and separated in a 10% Novex mini gel and transferred to PVDF membrane. eNOS protein signals were visualized by ECL and quantified using densitometry.
In general terms: Immunoblotting shows a protein as a band on a membrane.

For the next assay, the target named is KDR receptor (Homo sapiens, UniProt P35968). The experiment in a line: KDR receptor binding ELISA (inhibition of biotinylated native VEGF (8-109) binding). The conditions noted are these: second figure of the cell, ratio to native VEGF (8-109). Here is the method:
Receptor binding assays were performed in 96-well immunoplates (Maxisorp, Nunc-Immunoplate, Nalge Nunc International, Rochester, N.Y.). Each well was coated with 100 μl of a solution containing 8 μg/ml of a monoclonal antibody to KDR known as MAKD5 (Genentech, South San Francisco, Calif.) in 50 mM carbonate buffer at pH 9.6 and incubated at 4° C. overnight. The supernatant was discarded, the wells were washed three times in washing buffer (0.05% Tween 20 in PBS), and the plate was blocked (150 μl per well) with block buffer (0.5% BSA, 0.01% thimerosal in PBS) at room temperature for one hour. The supernatant was discarded, and the wells were washed.
Aliquots of this mixture (100 μl) were added to the precoated microtiter wells and the plate was incubated for 1 hour at room temperature. […] The wells were then incubated with 3, 3′, 5,5′-tetramethyl benzidine (0.2 gram/liter; Kirkegaard & Perry Laboratories, Gaithersburg, Md.) for about 10 minutes at room temperature. Absorbance was read at 450 nm on a Vmax plate reader (Molecular Devices, Menlo Park, Calif.).
(§1) Titration curves were fit with a four-parameter nonlinear regression curve-fitting program (KaleidaGraph, Synergy Software, Reading, Pa.).
(In an ELISA, binding on a coated surface is turned into a signal by an enzyme label.)

For assay [1], the system named is Flt-1 receptor. The experiment in a line: Flt-1 receptor binding ELISA (inhibition of biotinylated native VEGF binding to Flt-IgG). Particulars: second figure of the cell, ratio to native VEGF (8-109). Here is the method: Receptor binding assays were performed in 96-well immunoplates (Maxisorp, Nunc-Immunoplate, Nalge Nunc International, Rochester, N.Y.). Each well was coated with 100 μl of a solution containing 2 μg/ml of rabbit F(ab′)2 to human IgG Fc (Jackson ImmunoResearch, West Grove, Pa.) in 50 mM carbonate buffer at pH 9.6 and incubated at 4° C. overnight. The supernatant was then discarded, the wells were washed three times in washing buffer (0.05% Tween 20 in PBS), and the plate was blocked (150 μl per well) with block buffer (0.5% BSA, 0.01% thimerosal in PBS) at room temperature for one hour. The supernatant was discarded, and the wells were washed.
Flt-1 receptor, sequence (P17948 27-327 limits assumed): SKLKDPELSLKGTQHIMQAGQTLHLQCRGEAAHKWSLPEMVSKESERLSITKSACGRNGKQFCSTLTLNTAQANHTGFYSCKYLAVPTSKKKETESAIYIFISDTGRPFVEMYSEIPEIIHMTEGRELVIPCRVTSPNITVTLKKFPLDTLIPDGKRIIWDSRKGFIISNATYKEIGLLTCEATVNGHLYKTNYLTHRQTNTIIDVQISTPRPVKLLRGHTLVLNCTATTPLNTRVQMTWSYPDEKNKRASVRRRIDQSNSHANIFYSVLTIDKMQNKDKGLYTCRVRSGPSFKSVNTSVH
The wells were filled with 100 μl of a solution containing Flt-IgG (a chimeric Flt-human Fc molecule) at 50 ng/ml in assay buffer (0.5% BSA, 0.05% Tween 20 in PBS). The wells were incubated at room temperature for 1 hour and then washed three times in wash buffer (0.05% Tween 20 in PBS).
Aliquots of the mixture (100 μl) were added to the precoated microtiter wells and the plate was incubated for 2 hours at room temperature. […] The wells were then incubated with 3, 3′, 5,5′-tetramethyl benzidine (0.2 g/liter, Kirkegaard & Perry Laboratories, Gaithersburg, Md.) for about 10 minutes at room temperature. Absorbance was read at 450 nm on a Vmax plate reader (Molecular Devices, Menlo Park, Calif.).
as §1

Assay [2] deals with Flt-1 receptor (Homo sapiens, UniProt P17948). The assay can be described thus: RIA binding assay, FLT-1 receptor. Particulars: relative to Native VEGF 165. From the text: The results are shown below in Table 6.
Flt-1 receptor (Homo sapiens, UniProt P17948), sequence (P17948 27-1338): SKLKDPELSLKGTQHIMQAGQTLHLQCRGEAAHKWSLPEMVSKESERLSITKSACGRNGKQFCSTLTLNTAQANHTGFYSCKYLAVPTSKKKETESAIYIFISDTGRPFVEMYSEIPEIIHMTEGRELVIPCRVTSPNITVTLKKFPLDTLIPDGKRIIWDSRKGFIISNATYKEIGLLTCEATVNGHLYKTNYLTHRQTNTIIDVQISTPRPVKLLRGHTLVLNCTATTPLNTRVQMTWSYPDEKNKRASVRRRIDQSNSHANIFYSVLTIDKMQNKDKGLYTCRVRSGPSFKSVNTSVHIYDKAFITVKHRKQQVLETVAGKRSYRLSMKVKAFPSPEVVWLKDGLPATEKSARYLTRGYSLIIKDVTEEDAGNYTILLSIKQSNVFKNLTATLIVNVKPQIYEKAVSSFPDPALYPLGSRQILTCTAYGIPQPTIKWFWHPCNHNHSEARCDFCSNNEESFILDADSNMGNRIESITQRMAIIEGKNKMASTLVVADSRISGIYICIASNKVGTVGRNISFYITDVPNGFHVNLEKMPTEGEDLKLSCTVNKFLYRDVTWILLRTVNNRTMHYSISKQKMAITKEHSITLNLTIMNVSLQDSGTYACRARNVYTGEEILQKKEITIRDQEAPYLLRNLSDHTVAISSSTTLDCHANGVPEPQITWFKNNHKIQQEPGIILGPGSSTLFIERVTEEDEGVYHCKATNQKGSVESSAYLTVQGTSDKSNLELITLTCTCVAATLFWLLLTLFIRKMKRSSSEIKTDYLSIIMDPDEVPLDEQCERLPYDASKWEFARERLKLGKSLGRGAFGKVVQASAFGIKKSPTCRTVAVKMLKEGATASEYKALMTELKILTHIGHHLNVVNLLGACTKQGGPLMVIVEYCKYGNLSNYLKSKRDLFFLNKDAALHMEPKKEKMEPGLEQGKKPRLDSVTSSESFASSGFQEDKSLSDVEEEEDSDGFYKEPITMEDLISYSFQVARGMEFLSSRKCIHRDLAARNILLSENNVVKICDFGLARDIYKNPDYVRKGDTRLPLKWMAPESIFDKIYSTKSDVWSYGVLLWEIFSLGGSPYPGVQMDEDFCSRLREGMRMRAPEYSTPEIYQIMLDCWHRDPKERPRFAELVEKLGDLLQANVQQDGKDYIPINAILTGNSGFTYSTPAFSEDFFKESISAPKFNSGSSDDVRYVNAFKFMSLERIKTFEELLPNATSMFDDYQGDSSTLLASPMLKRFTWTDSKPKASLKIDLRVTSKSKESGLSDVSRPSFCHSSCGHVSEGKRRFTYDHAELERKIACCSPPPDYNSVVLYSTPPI

“Also recorded” adds a separate entry of the source.

KDR receptor, sequence (P35968 20-327 limits assumed): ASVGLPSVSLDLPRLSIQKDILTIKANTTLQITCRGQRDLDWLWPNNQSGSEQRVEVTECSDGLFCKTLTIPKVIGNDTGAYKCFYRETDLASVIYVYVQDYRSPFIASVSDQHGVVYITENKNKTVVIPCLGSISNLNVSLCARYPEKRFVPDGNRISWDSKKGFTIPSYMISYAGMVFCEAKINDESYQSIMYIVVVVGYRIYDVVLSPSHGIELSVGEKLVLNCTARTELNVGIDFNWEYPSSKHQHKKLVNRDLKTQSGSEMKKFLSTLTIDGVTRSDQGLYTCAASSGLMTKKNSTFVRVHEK

B1: PLGF: recombinant human placental growth factor (protein, UniProt P49763 19-221, looked up)
Placenta growth factor: LPAVPPQQWALSAGNGSSEVEVVPFQEVWGRSYCRALERLVDVVSEYPSEVEHMFSPSCVSLLRCTGCCGDENLHCVPVETANVTMQLLKIRSGDRPSYVELTFSQHVRCECRHSPGRQSPDMPGDFRADAPSFLPPRRSLPMLFRMEWGCALTGSQSAVWPSSPVPEEIPRMHPGRNGKKQQRKPLREKMKPERCGDAVPRR
As for B1, in the assay on eNOS expression (equal concentrations, two days), the “eNOS expression with VEGF forms and receptor-selective variants” value is “had no effect; also recorded: did not”.

B2: TGF-beta2: recombinant human transforming growth factor (protein, UniProt P61812 303-414, looked up)
Transforming growth factor …: ALDAAYCFRNVQDNCCLRPLYIDFKRDLGWKWIHEPKGYNANFCAGACPYLWSSDTQHSRVLSLYNTINPEASASPCCVSQDLEPLTILYYIGKTPKIEQLSNMIVKSCKCS
modifications: Transforming growth factor beta-2
Take B2: the “eNOS expression with angiogenic factors” value in the assay with eNOS expression (500 pM, 2 days) is reported as “reduced endogenous eNOS expression”.

B3: LK-VRB-24s: VEGF (1-109) variant, D63S/G65M/M18E/Y21L/Q22R/Y25S (protein)
chain: APMAEGGGQNHHEVVKFEDVLRRSSCHPIETLVDIFQEYPDEIEYIFKPSCVPLMRCGGCCNSEMLECVPTEESNITMQIMRIKPHQGQHIGEMSFLQHNKCECRPKKD
On to B3, for which, in the assay with KDR receptor, the “Relative Binding Affinity KDR Receptor” value came to 10 nM/10. Also, the “Relative Binding Affinity FLT-1 Receptor” value in the assay with Flt-1 receptor [1] was “/>18000”.

B4: LK-VRB-26s: VEGF (1-109) variant, G65M/L66R/M18E/Y21L/Q22R/Y25S (protein)
chain: APMAEGGGQNHHEVVKFEDVLRRSSCHPIETLVDIFQEYPDEIEYIFKPSCVPLMRCGGCCNDEMRECVPTEESNITMQIMRIKPHQGQHIGEMSFLQHNKCECRPKKD
Turning to B4, the “Relative Binding Affinity KDR Receptor” value with KDR receptor came out at 23 nM/23. For the same molecule, the “Relative Binding Affinity FLT-1 Receptor” value in the assay on Flt-1 receptor [1] was “/>25000”.

B5: LK-VRB-25s: VEGF (1-109) variant, D63S/L66R/M18E/Y21L/Q22R/Y25S (protein)
chain: APMAEGGGQNHHEVVKFEDVLRRSSCHPIETLVDIFQEYPDEIEYIFKPSCVPLMRCGGCCNSEGRECVPTEESNITMQIMRIKPHQGQHIGEMSFLQHNKCECRPKKD
For the molecule B5, the “Relative Binding Affinity KDR Receptor” value with KDR receptor worked out at 4 nM/4. For the same molecule, the “Relative Binding Affinity FLT-1 Receptor” value with Flt-1 receptor [1] is on record as “/>12000”.

B6: LK-VRB-1s*: VEGF (1-109) variant, M18E/Y21L/Q22R/Y25S (protein)
chain: APMAEGGGQNHHEVVKFEDVLRRSSCHPIETLVDIFQEYPDEIEYIFKPSCVPLMRCGGCCNDEGLECVPTEESNITMQIMRIKPHQGQHIGEMSFLQHNKCECRPKKD
Regarding B6, in the assay with KDR receptor, the “Relative Binding Affinity KDR Receptor” value stood at 1 nM/1. In the assay with Flt-1 receptor [2], the “Relative Binding Affinity FLT-1 Receptor” value is reported as 14,000.
